Values belong to the molecule of their own block, whether it stands above or below them.
Columns and labels:
pancreas elastase = pancreas elastase (Sus scrofa, UniProt P00772); test: Inhibition of elastase activity; assay type: biochemical
Procedure: In order to test the effectiveness of the plant extract in inhibiting the release of elastase, pancreas elastase (a serine protease) was investigated and, as substrate, elastin was marked with a chromogenic synthetic substrate. The system was incubated with the active principles for 30 minutes at room temperature and then, after centrifuging, the optical density of the dye was determined at 410 nm. The extracts were used in a quantity of 0.3% by weight. The results are set out in Table 1 where they are expressed relative to a control as standard (=0%); a1-antitrypsin was used as the standard.

Human plasmin = molecular target: T1, Human plasmin (Homo sapiens, UniProt P00747); test: Inhibition of plasmin activity (quenched fluorescent casein hydrolysis); assay type: biochemical; settings: reference substance
T1 construct: purchased Sigma
T1 sequence (P00747 581-810 limits assumed): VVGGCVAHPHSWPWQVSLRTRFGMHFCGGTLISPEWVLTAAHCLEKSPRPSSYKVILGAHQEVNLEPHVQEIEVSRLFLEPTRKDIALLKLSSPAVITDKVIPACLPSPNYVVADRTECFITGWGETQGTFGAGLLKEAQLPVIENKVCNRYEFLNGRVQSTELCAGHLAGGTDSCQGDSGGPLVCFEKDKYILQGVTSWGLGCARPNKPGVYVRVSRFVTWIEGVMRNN
T1 sequence (P00747 97-580 partner limits assumed): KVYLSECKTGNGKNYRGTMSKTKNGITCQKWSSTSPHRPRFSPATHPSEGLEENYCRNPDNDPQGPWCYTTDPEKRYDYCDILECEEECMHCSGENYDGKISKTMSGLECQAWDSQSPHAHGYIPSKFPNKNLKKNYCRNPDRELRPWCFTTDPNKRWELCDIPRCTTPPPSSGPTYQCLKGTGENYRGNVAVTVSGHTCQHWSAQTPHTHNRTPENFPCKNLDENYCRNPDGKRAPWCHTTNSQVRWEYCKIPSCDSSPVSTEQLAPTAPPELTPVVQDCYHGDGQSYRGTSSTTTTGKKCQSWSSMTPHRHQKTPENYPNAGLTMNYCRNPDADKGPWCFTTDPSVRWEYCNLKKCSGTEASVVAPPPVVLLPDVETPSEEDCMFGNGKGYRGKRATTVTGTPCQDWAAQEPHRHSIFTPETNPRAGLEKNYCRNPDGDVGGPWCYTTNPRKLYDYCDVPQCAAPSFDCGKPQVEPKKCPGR
Procedure: Method: Human plasmin obtained from Sigma was mixed with the extract in a quantity of 0.3% by weight and incubated for a few minutes at 20° C. Natural casein marked with a quenched fluorescence probe (Interchim natural) was then added. The protease-catalyzed hydrolysis degraded the quenching and produced a fluorescence signal. The proportion of hydrolyzed substrate was determined by measuring the increased green fluorescence over a period of 30 minutes. […] The inhibition of enzyme activity was evaluated by comparison with a control and a reference substance SBT1 (Sigma).

pancreas elastase, sequence (P00772 27-266): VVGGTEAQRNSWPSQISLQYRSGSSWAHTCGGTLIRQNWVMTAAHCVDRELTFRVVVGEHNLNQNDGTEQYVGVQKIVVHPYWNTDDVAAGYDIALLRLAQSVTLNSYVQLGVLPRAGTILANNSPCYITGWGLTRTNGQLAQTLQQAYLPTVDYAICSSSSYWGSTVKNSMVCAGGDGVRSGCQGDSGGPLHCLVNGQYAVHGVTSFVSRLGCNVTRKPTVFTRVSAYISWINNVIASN

IC50 (elastase inhibition, standard) (pancreas elastase): IC50 = 0.13 mg/ml
Molecule: α1-anti-trypsin: Standard used in the elastase inhibition test

IC50 (plasmin inhibition, standard) (Human plasmin): 0.006%
B1: SBTI: Reference substance (Sigma) in the plasmin inhibition test (protein, UniProt P01070 25-205, looked up)
Trypsin inhibitor A: DFVLDNEGNPLENGGTYYILSDITAFGGIRAAPTGNERCPLTVVQSRNELDKGIGTIISSPYRIRFIAEGHPLSLKFDSFAVIMLCVGIPTEWSVVEDLPEGPAVKIGENKDAMDGWFRLERVSDDEFNNYKLVFCPQQAEDDKCGDIGISIDHDDGTRRLVVSKNKPLVVQFQKLDKESL
